The supplement of paper PMC9112550, “Optimization of the antimicrobial peptide Bac7 by deep mutational scanning” (BMC Biology, 2022)

system: Escherichia coli TOP10; assay: shrunken log2 fold change of peptide-encoding DNA abundance (4.5 h post-induction vs induction); higher = less antimicrobial activity (less host growth inhibition); details: time post-induction: 4.5 h; library: site-saturation at positions 5, 18, 19, 20
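Note: peptides expressed intracellularly from a pBAD plasmid library in pooled LB shake-flask culture, induced with 0.3% L-arabinose, DNA abundance read by NGS, three biological replicates, DESeq2 with apeglm shrinkage.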

Row | Sequence | shrunken log2 fold change
1 | RRIRVRPPRLPRPRPRPLKPPRP | -0.0393
2 | RRIRWRPPRLPRPRPRPTWMPRP | -0.029
3 | RRIRIRPPRLPRPRPRPVTQPRP | -0.0794
4 | RRIRDRPPRLPRPRPRPALIPRP | 0.145
5 | RRIRIRPPRLPRPRPRPFWQPRP | -0.31
6 | RRIRNRPPRLPRPRPRPMKRPRP | 0.0981
7 | RRIRCRPPRLPRPRPRPPMHPRP | 0.183
8 | RRIRARPPRLPRPRPRPTEQPRP | 0.184
9 | RRIRQRPPRLPRPRPRPISEPRP | 0.0446
10 | RRIRERPPRLPRPRPRPYDPPRP | -0.0709
11 | RRIRMRPPRLPRPRPRPVRNPRP | 0.0163
12 | RRIRLRPPRLPRPRPRPALPPRP | 0.128
13 | RRIRYRPPRLPRPRPRPQDTPRP | -0.547
14 | RRIRERPPRLPRPRPRPAKMPRP | -0.194
15 | RRIRRRPPRLPRPRPRPDDDPRP | 0.129
16 | RRIRVRPPRLPRPRPRPPIHPRP | 0.042
17 | RRIRSRPPRLPRPRPRPSSEPRP | 0.0612
18 | RRIRWRPPRLPRPRPRPTGKPRP | 0.294
19 | RRIRRRPPRLPRPRPRPNIAPRP | -0.109
20 | RRIRSRPPRLPRPRPRPPVQPRP | 0.319
21 | RRIRQRPPRLPRPRPRPETFPRP | -0.0643
22 | RRIRWRPPRLPRPRPRPLFKPRP | -0.242
23 | RRIRYRPPRLPRPRPRPITGPRP | 0.0176
24 | RRIRTRPPRLPRPRPRPFAWPRP | -0.0156
25 | RRIRKRPPRLPRPRPRPLHGPRP | -0.0122

Row | Sequence | shrunken log2 fold change
26 | RRIRQRPPRLPRPRPRPYQCPRP | -0.263
27 | RRIRRRPPRLPRPRPRPDIEPRP | 0.172
28 | RRIRQRPPRLPRPRPRPRCTPRP | -0.172
29 | RRIRRRPPRLPRPRPRPTGHPRP | 0.236
30 | RRIRIRPPRLPRPRPRPPPRPRP | 0.929
31 | RRIRGRPPRLPRPRPRPTYPPRP | 0.0703
32 | RRIRLRPPRLPRPRPRPGDDPRP | 0.431
33 | RRIRARPPRLPRPRPRPHIEPRP | -0.0716
34 | RRIRKRPPRLPRPRPRPFTEPRP | 0.0246
35 | RRIRGRPPRLPRPRPRPMGFPRP | 0.315
36 | RRIRERPPRLPRPRPRPHFQPRP | 0.0177
37 | RRIRRRPPRLPRPRPRPKEIPRP | 0.205
38 | RRIRFRPPRLPRPRPRPNLQPRP | -0.264
39 | RRIRSRPPRLPRPRPRPCGLPRP | 0.00512
40 | RRIRIRPPRLPRPRPRPWCVPRP | -0.698
41 | RRIRDRPPRLPRPRPRPVGMPRP | 0.37
42 | RRIRARPPRLPRPRPRPMVLPRP | -0.118
43 | RRIRARPPRLPRPRPRPQRRPRP | 0.366
44 | RRIRPRPPRLPRPRPRPYPVPRP | -0.247
45 | RRIRQRPPRLPRPRPRPNLFPRP | -0.0199
46 | RRIRHRPPRLPRPRPRPALPPRP | 0.0229
47 | RRIRTRPPRLPRPRPRPGDCPRP | -0.195
48 | RRIRQRPPRLPRPRPRPDKRPRP | 0.00102
49 | RRIRTRPPRLPRPRPRPYHHPRP | -0.59
50 | RRIRDRPPRLPRPRPRPGMKPRP | -0.00884

Row | Sequence | shrunken log2 fold change
51 | RRIRFRPPRLPRPRPRPWCVPRP | -0.384
52 | RRIRFRPPRLPRPRPRPISPPRP | -0.211
53 | RRIRMRPPRLPRPRPRPQVMPRP | 0.0337
54 | RRIRNRPPRLPRPRPRPMLIPRP | -0.0638
55 | RRIRMRPPRLPRPRPRPTQMPRP | 0.195
56 | RRIRNRPPRLPRPRPRPSDYPRP | 0.075
57 | RRIRNRPPRLPRPRPRPDASPRP | 0.14
58 | RRIRTRPPRLPRPRPRPWIEPRP | -0.042
59 | RRIRSRPPRLPRPRPRPNIHPRP | 0.829
60 | RRIRLRPPRLPRPRPRPAKCPRP | -0.0859
61 | RRIRIRPPRLPRPRPRPHCSPRP | -1.21
62 | RRIRYRPPRLPRPRPRPPQMPRP | 0.0297
63 | RRIRWRPPRLPRPRPRPVCGPRP | 0.649
64 | RRIRTRPPRLPRPRPRPSNCPRP | -0.414
65 | RRIRGRPPRLPRPRPRPTAIPRP | 0.974
66 | RRIRRRPPRLPRPRPRPIALPRP | 0.0331
67 | RRIRWRPPRLPRPRPRPAMAPRP | 0.529
68 | RRIRDRPPRLPRPRPRPTMWPRP | 0.176
69 | RRIRIRPPRLPRPRPRPQRFPRP | -0.231
70 | RRIRMRPPRLPRPRPRPTEKPRP | 1.36
71 | RRIRHRPPRLPRPRPRPICFPRP | -0.114
72 | RRIRVRPPRLPRPRPRPERSPRP | 0.276
73 | RRIRFRPPRLPRPRPRPTWRPRP | 0.587
74 | RRIRCRPPRLPRPRPRPYHSPRP | -0.73
75 | RRIRWRPPRLPRPRPRPVRCPRP | 0.418

Row | Sequence | shrunken log2 fold change
76 | RRIRQRPPRLPRPRPRPSKVPRP | -0.133
77 | RRIRQRPPRLPRPRPRPPGPPRP | 0.255
78 | RRIRVRPPRLPRPRPRPPHNPRP | 0.154
79 | RRIRTRPPRLPRPRPRPVCHPRP | -0.173
80 | RRIRERPPRLPRPRPRPSVSPRP | -0.335
81 | RRIRWRPPRLPRPRPRPQSEPRP | -0.338
82 | RRIRSRPPRLPRPRPRPYGSPRP | -0.0102
83 | RRIRNRPPRLPRPRPRPRAFPRP | 0.0795
84 | RRIRMRPPRLPRPRPRPQPFPRP | 0.211
85 | RRIRCRPPRLPRPRPRPSRFPRP | -0.0991
86 | RRIRHRPPRLPRPRPRPSAWPRP | 0.373
87 | RRIRSRPPRLPRPRPRPPGCPRP | 0.676
88 | RRIRWRPPRLPRPRPRPRDPPRP | 0.241
89 | RRIRSRPPRLPRPRPRPSHTPRP | -0.572
90 | RRIRWRPPRLPRPRPRPRAWPRP | 0.124
91 | RRIRVRPPRLPRPRPRPAEKPRP | 0.00294
92 | RRIRPRPPRLPRPRPRPKSVPRP | -0.119
93 | RRIRYRPPRLPRPRPRPLRLPRP | 0.077
94 | RRIRWRPPRLPRPRPRPWEAPRP | 0.396
95 | RRIRSRPPRLPRPRPRPSPTPRP | -0.0425
96 | RRIRFRPPRLPRPRPRPAAKPRP | -0.118
97 | RRIRGRPPRLPRPRPRPCPSPRP | 0.0189
98 | RRIRNRPPRLPRPRPRPQWPPRP | 0.00622
99 | RRIRYRPPRLPRPRPRPSQMPRP | -0.706
100 | RRIRERPPRLPRPRPRPGTNPRP | -0.361

Row | Sequence | shrunken log2 fold change
101 | RRIRFRPPRLPRPRPRPCTHPRP | -0.842
102 | RRIRNRPPRLPRPRPRPAHKPRP | 0.00838
103 | RRIRERPPRLPRPRPRPKHSPRP | 0.111
104 | RRIRNRPPRLPRPRPRPHHRPRP | 0.0742
105 | RRIRNRPPRLPRPRPRPPWMPRP | -0.00995
106 | RRIRERPPRLPRPRPRPKNRPRP | 0.103
107 | RRIRSRPPRLPRPRPRPKHKPRP | -0.0831
108 | RRIRPRPPRLPRPRPRPWEAPRP | -0.224
109 | RRIRLRPPRLPRPRPRPLNYPRP | -0.501
110 | RRIRERPPRLPRPRPRPMCKPRP | -0.373
111 | RRIRWRPPRLPRPRPRPCRGPRP | -0.0518
112 | RRIRWRPPRLPRPRPRPCYVPRP | -0.127
113 | RRIRYRPPRLPRPRPRPVYVPRP | -0.37
114 | RRIRRRPPRLPRPRPRPCMSPRP | -0.00622
115 | RRIRDRPPRLPRPRPRPGEEPRP | 0.0844
116 | RRIRERPPRLPRPRPRPHRRPRP | 0.0407
117 | RRIRVRPPRLPRPRPRPVKSPRP | -0.0272
118 | RRIRHRPPRLPRPRPRPCQNPRP | -0.0608
119 | RRIRCRPPRLPRPRPRPYNEPRP | -0.51
120 | RRIRKRPPRLPRPRPRPEWFPRP | 0.219
121 | RRIRTRPPRLPRPRPRPSNGPRP | -0.126
122 | RRIRWRPPRLPRPRPRPGRHPRP | 0.458
123 | RRIRWRPPRLPRPRPRPVMMPRP | -0.385
124 | RRIRHRPPRLPRPRPRPLIIPRP | -0.377
125 | RRIRTRPPRLPRPRPRPNQFPRP | -0.205

Row | Sequence | shrunken log2 fold change
126 | RRIRHRPPRLPRPRPRPMMRPRP | 0.0201
127 | RRIRKRPPRLPRPRPRPYECPRP | -0.341
128 | RRIRLRPPRLPRPRPRPEMCPRP | 0.0636
129 | RRIRKRPPRLPRPRPRPMCCPRP | -0.178
130 | RRIRFRPPRLPRPRPRPLPYPRP | -0.101
131 | RRIRERPPRLPRPRPRPEEWPRP | -0.0919
132 | RRIRQRPPRLPRPRPRPKYPPRP | 0.0386
133 | RRIRERPPRLPRPRPRPNAIPRP | 0.185
134 | RRIRGRPPRLPRPRPRPDRKPRP | 0.051
135 | RRIRSRPPRLPRPRPRPEIFPRP | -0.432
136 | RRIRNRPPRLPRPRPRPWPWPRP | 0.0162
137 | RRIRQRPPRLPRPRPRPLEIPRP | -0.106
138 | RRIRNRPPRLPRPRPRPMFTPRP | -0.211
139 | RRIRARPPRLPRPRPRPWALPRP | 0.172
140 | RRIRVRPPRLPRPRPRPQHIPRP | -0.32
141 | RRIRTRPPRLPRPRPRPYPRPRP | -0.0911
142 | RRIRYRPPRLPRPRPRPQAHPRP | -0.149
143 | RRIRGRPPRLPRPRPRPCTFPRP | 0.0341
144 | RRIRQRPPRLPRPRPRPVYDPRP | -0.228
145 | RRIRLRPPRLPRPRPRPCTTPRP | 0.0144
146 | RRIRDRPPRLPRPRPRPECAPRP | 1.58
147 | RRIRIRPPRLPRPRPRPGSSPRP | -0.486
148 | RRIRQRPPRLPRPRPRPPGIPRP | -0.0579
149 | RRIRTRPPRLPRPRPRPVVEPRP | 0.0529
150 | RRIRERPPRLPRPRPRPMSGPRP | 0.0249
